Assay: yeast display, Sf9 membrane polyspecificity reagent, FACS + sequencing; frameworks hold sequencing errors
In short: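 Nanobodies from a synthetic yeast display library (Saccharomyces cerevisiae BJ5465), induced 36–48 hours with galactose, were stained 1 hour at 4 °C with 10% biotinylated, detergent-solubilized Sf9 membrane reagent, enriched on streptavidin microbeads, then FACS-sorted. Anti-HA (expression) and streptavidin (reagent binding) fluorescence set low and high (top ~1%) gates. Polyreactivity labels come from the gate of origin. Genes were colony-PCR amplified, MiSeq 2 × 250 sequenced and filtered by CDR length.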

| Sequence | polyreactivity (PSR sort gate) |
| --- | --- |
| QVQLVESGGGLVQAGGSLRLSCAASGSIFVGYAMGWYRQAPGKERELVAAISSNGGSTYYADSVKGRFTISRDNAKNTVYLQMNSLKPEDTAVYYCAAGVRRVYASGHGAYGYWGQGTQVTVSS | low polyreactivity |
| QVQLVDSGGGLVQAGGSLRLSCAASGSIVVLYAMGWYRQAPGKERELVAAITSGASTNYADSVKGRFTISRDNAKNTVYLQMNSLKPEDTAVYYCHTGSRLDRVDSWGQGTQVTVSS | low polyreactivity |
| QVQLVESGGGLVQAGGSLRLSCAASGYIFTVYAMGWYRQAPGKERELVAAINWSDGSTYYADSVKGRFTISRDNAKNTVYLQMNSLKPEDTAVYYCAAESRYQRYDYWGQGTQVTVSS | high polyreactivity |
| QVQLVESGGGLVQAGGSLRLSCAASGRTFVYNAMGWYRQAPGKERELVAGITNGGSTNYADSVKGRFTISRDNAKNTVYLQMNSLKPEDTAVYYCAADSRVYPYYFGDFGYWGQGTQVTVSS | low polyreactivity |
| QVQLVESGGGLVQAGGSRRLSCAASGGTFVSYAMGWYIQAPGKERELVADITYSGGSTYYADSVKGRFTISRDNAKNTVYLQMNSLKPEDTAVYYCAADLGRNLLHTYYYWGQGTQVTVSS | low polyreactivity |
| QVQLVESGGGLVQAGGSLRLSCAASGSNFGKYAMGWYRPAPGKERELVATITRRGGSTYYADSVKGRFTISRDNAKNTVYLQMNSLKPEDSAVYYCAKRSNGYVDYGYWGQGTQVTVSS | high polyreactivity |
| QVQLVESGGGLVQAGGSLRVSCAASGSTLGRNTMGWYRQAPGKVRELVAAITITDSTNYADSVKGRFTISRDNAKNTVYLQMNSLKPEDTAVYYGAKRRYYSTPRWGSSTYDYWGLGTQVTVSS | low polyreactivity |
| QVHLVESGGGLVQAGGSLRLSCAASGSIFLVYAMGWYRPAPGKERELVAVISNGGRTNYADSVKGRFTISRDNAKNTVYLQMNSLKPEDTAVYYCAVRGPTDYWADPYSAGDHWGQGTQVTVSS | high polyreactivity |
| QVQLVESGGGLVQAGGSLRLSCAASGLTFAGYAMGWYRQAPGKERELVAAITSGGSTYYADSVKGRFTISRDNAKNTVYLQMNSLKPEDTAVYYCAARRVRKALVGYGYWGQGTQVTVSS | high polyreactivity |
| QVQLVESGGGLVHAGGSLRLSCAASGSTVSYYAMGWYRQAPGKERELVAAISTRGSSTYYADSVKGRFTISRDNAKNTVYFQMNSLKPEDTAVYYCAVDQYKYDWFYDYYGYTYGYWGQGTQVTVSS | high polyreactivity |
| QVQLQESGGGLVQAGGSLRLSCAASGSIFDYVSMGWYRQAPGEERELVVTITLGSNTYYADSVKGRFTISSDIAKNTVYLQMNSLNPEDTAVYYCAPSALWGYVYPYWGLGTQVTVSS | high polyreactivity |
| QVQLVESGGGLVQAGGSLRLSCAASGRIFWDNAMGWYRQAPGKERELVAAIDYRGGNTNYADSVKGRFTISRDNAKNTVYLQMNSLKPEDTAVYYCNAEWAVRYPGYDYWGQGTQVTVSS | low polyreactivity |
| QVQLVESGGGLVQAGGSLRLSCAASGRTFLAMGWYRQAPGKERELVAAISRTNYADSVKGRFTISRDNAKNTVYLQMNSLKPEDTAVYYCAKEYYSYEVYLGLSYVRRYDYWGQGTQVTVSS | low polyreactivity |
| QVQLVESGGGLVQAGGSLRLSCAASGLIFYFYAMGWYRQAPGKERELVAAISSRGGRTYYADSVKGRFTISRDNAKNTVYLQMNSLKPEDTAVYYCNVDQLLRRTSAQGDYWGQGTQVTVSS | high polyreactivity |
| QVKLVESGGGLFQAGGSLRLSCAASGITFTFNAMGWYRQAPGKERELVAAITWSGGSTFYADSVKGRFTISRDNAKNTVYLQMNSLKPEDTAVYYCARDTELYVRWLDYWGQGTQVTVSS | low polyreactivity |
| QVQLVESGGGLVQAGGSLRLSCAASGSIFDKNAMGWYRQAPGKERELVAAIRRTSTTYYADSVKGRFTISRDNAKKTVYLQMNSLKPEDTAVYYCAATYGSGYWYPRYYYWGQGTQVTVSS | high polyreactivity |
| QVHLVESGGGLVQAGGSLRLSCAASGNTHVKNAMGWYRQAPGKERELVAAISSSGGRTYYGDSVKGRFTISRDNAKNTVYLQMNSLKPDDTAVYYCAARYPSGYYYWGQGTQVTVSS | high polyreactivity |
| QVQLVDSGGGLVQAGGSLRLSCAASGSIFEGYVMGWYRQAPGKERELVAAITTGGGSTYYADSVKGRFTISRDNAKNTVDLPMNSLKPEDTAVYYCAKDYWFGYEYWGQGTQVTVSS | low polyreactivity |
| QVQLVESGGGLVQAGGSLRLSCAASGSTFVVYAMGWYRQAPGKERELVAAITTSDDSTYYADSVKGRFTISRDNAKNTVYLQMNSLKPEDTAVYYCAATLRWQDGYWGQGTQVTVSS | low polyreactivity |
| QVQLVESGGGLVQAGGSLRLSCAASGRIFYVYAMGWYRQAPGKEMELVATITSSGEGTYYADSVMGRFTISRDNAKNTVYLQMNSLKPEDTAVYYCARRYFVRFVHPPYYYWGQGTQVTVSS | low polyreactivity |
| HVELVQSCGGLVQAGGSLRLSSAASGRIFSPYVMGWFRQAPGKVRQLVAASRNRGGSTYYAAAVKWRFTISRDNATNTVYIQMNSLKPEDTAVYYCNAPDVSRPLRGRYDYWGQGTQVTVSS | high polyreactivity |
| QVQLVESGGGLVQAGGSLRLSCAASGGIIDWYVKGWYRQAPGTERELVAAISYKGGSTYYADSVKGRFTISRDYAKTTGYFQMNSLKPEETAVYDCAAGVTSPYRYVWYDYWGQGTQVTVSS | low polyreactivity |

| Sequence | polyreactivity (PSR sort gate) |
| --- | --- |
| QVQLVESGGGLVQAGGSLRLSCSASGIIFIYYGMGWYRKAPGTERELVAAISRSGGRTYYADSVKGRFTISRDNANNIVYLQMNSLKPEDTAVYYCATTYTPTGFDYWGQGTQVTVSS | high polyreactivity |
| QVQLVESGGGLVQAGGSLRLSCAASGFTFETNAMGWYRQEPGQERELVAAISYSGGSTYYADSVKGRFTISRDNAKNTVYLQMNSLKPEDNAVYYCNKYYRGIFKAHRDYWGQGTQVTVSS | low polyreactivity |
| QVQLVESGGGLVQAGGSLRLSCAASGRTFEQNAMGWYRQAPGKEREFVAAITASSGRTSYADSVKGRFTISRDNAKNTVYLQMNSLKPEDTAVYDCAADLADRERRHNYWGQGTQVTVSS | low polyreactivity |
| QVQLVESGGGLVQAGGSLRLSCAAYGRTFNPYAMGWYRQAPGKERELVARITWSGGRTYYADSVKGRFTISRDNAKNTVYLQMNSLKPEDTAVYYCAARYSKYLYGRFESWGQGTQVTVSS | high polyreactivity |
| QVQLVESGGVLVQAGGSLRLSCAASGSTFGPNAMGWYRQAPGKERELVAAIRSNGGRTYYADSVKGRFTISRDNAKNTVYLQMNSLKPEDTAVYYCAAPHYPYDTPYGYWGQGTQVTVSS | low polyreactivity |
| QVQLVESGGGLVQAGGSLRLSCAASGSIFNGYVMGWYRQAPGKERELVAAISSGGRTYYADSVKGRFTISRDNAKNTVYLQMNSLKPEDTAVYYCNAYWLHYPSRVRKITAYDYWGQGTQVTVSS | low polyreactivity |
| QVQLVESGGGLVQAGGSLRLSCAASGRTSLGYDMGWYRQAPGKERELVAAITRGGSTYYADSVKGRFTISRDNAKNTVYLQMNSLKPEDTAVYYCAARPWTSASYDYWGQGTQVTVSS | low polyreactivity |
| QVQLVESVGGLVQAGGSLPLSCAASGFTFSDYAMGWYRQAPGKESELVAGISSGGYTNYADSVKGRFTISRDNAKNTVYLQMNSLKPEDTAVYYCAAAYYSKFGYWGKGTQVTVSS | high polyreactivity |
| QVQLVESGGGLVQAGGSLRLSCAASGLTFSQNAMGWNRQPPGKERELVGAITRSGSTTHYADSVKGRFTISRDKAKNTVYLQMNSLKPEDTAVYYCAAVAFQTRYYYWGQGTQVTLSS | high polyreactivity |
| QVQLVESGAGLVQAAGSLRLSCDASGYIFEWNAMGWYRQAPGKERELVASIDSDGSTYYADSVKGRFTISRDNAKNTVYLQMNSLKPEDTAVYYSAKSIDGWYWRRRRYDYWGQGTQVTVSS | low polyreactivity |
| QVQLVESGGGLVQAGGSLRLSCAASGSTFYVNTMGWYRQAPGKERELVAVISRTGTSTYYADSVKGRFTISRDNAKNTVYFQMNCLKPEDTAVYYCAKRPLPGRPNRSILQYYYWGQVTQVTVSS | high polyreactivity |
| QDQLVESGGGIVQAGGSLRLSCAASGSTFTWYAMGWYLQDPGKEREFVAAITRSGDSTYYADSVKGRFTISRDNAKNTVYLEMNSLKPEDTAVYYCAASNDYLRGWFDYWGQGTQVTVSS | low polyreactivity |
| QVQLVESGGGLVQAGGSLRLSCAASGFTFSFYAMGWYRQAPGKERELVAVISRSGGGTYYADSVKGRFTISRDNAKHTVYLQMNSLKPEDTAVYYCAARLGNRRYDYWGQGTQVTVSS | high polyreactivity |
| QGQLVESGGGLVQAGGSLRLSCAASGRTFYRYAMGWYRQAPGKERELVAAITRRGDSTSYADSVKGRFTISRDNAKNTVYLQMNSLKPEDTAVYYCATLVQGSVYGLYGGGYWGQGTQVTVSS | low polyreactivity |
| QVQLVESGGGLVQAGGSLRLSCAASGNIFLYYAMGWSRQAPGKERELVADIDSSGASTYYADSVKGRFTISRDNAKNTVYLQMNSLKPEDTAVYYCAAEFHWWYAGYDYGYWGQGTQVTVSS | low polyreactivity |
| QVQLVESGGGLGQAGGSLRLSCAASGRILKYYDMGWYRQAPGKERELVAAISVSGTSTYYADSVKGRFTISRDNAKNTVYLQMNSLKPEDTAVYYCATATGRYSFDYWGQGAQVTVSS | low polyreactivity |
| QVQLVESAGGIVQAGGSLRLSCAASGITFPGNAMGWYRPAPGKERELVAAIDCYGGSTYYADTVKGRFTISRDNAKNTVYLQLNSLKPEDTAVYYCATDEYFSYYGYFLDAYWGQGTQVTLSS | low polyreactivity |
| QVQLVESGGGLVQAGGSLRLSCAASGSIFYRNAMGWYRQAPGKERELVAAISASGGSTYYADSVKGRFTISRDNAKITVYLQMNSLKPEDTAVYYCAVEYRKSRSYAPMGYWGQGTQVTVSS | high polyreactivity |
| QVQLVESGGGVVQAGGSLRLSCAASGSIFAGNAMGGSRQAPGKERELVAAITFSAGRTSYADSVKGRFTISRDNAKNTVYFQMNSLKPEDTAVYYCNALLTVRHVKSDYDYWGQGTQVTVSS | low polyreactivity |
| QVQLVESGGGLVQAGGSLRLSCAASGFIFPNNAMGWYRHAPGKERELVARISYGGGDTHYADSVKGRFTISRDNAKNTVYLQMNSLKPEDTAVYYCAVKDGQDDYWGQGTQVTVSS | low polyreactivity |
| QVQLVESGGGLVQAGGSLRLSCAASGRTFQYYAMGWYRQAPGKERELVAAITSGGSTYYADSVKGRFTISRDNAKNTVYLQMNSLKTEDTAVYYCAADFLYYSSGGKMDYWGQGTQVTVSS | low polyreactivity |

Source: the nanobody polyreactivity screen of Harvey et al. (2022)
